Legend:
Format in all cases: cell-based, human
A549 tumor cells = experiment: Cell viability, MTT assay, 1-6 days; settings: 10 μg/ml
Procedure: The cell survival rate was evaluated in a standard MTT assay [3-(4,5-dimethylthiazol-2-yl)-2,5-diphenyltetrazolium bromide assay, Sigma, St. Louis, Mo.). For the assay, about 20 μl MTT (at 4 mg/ml) was added to each well. The cells were incubated at 37° C. for 4 hr. After that, the supernatant of each well was drawn off carefully and then an equal volume (150 microliter) of dimethyl sulfoxide (DMSO) was added to each well and mixed thoroughly on a shaker for 15 min. The absorbance from the plates was read at 595 nm with a Thermo Scientific Microplate Reader (Thermo Fisher Scientific Inc., Lowell, Mass.). The relative cell viability was calculated as follows: Cell viability=(Treated group(OD595) minus blank(OD595))/(Control group(OD595) minus blank(OD595))×100%.

beta-catenin = experiment: Beta-catenin protein level by Western Blot; settings: 10 mcg/ml, 24, 48, 72 hr
Procedure: Cancer cells, A549 and Sw480, were cultured to about 85% confluency and put into 6 well plates. […] After treatment, the cells were harvested for Western Blot to detect the beta-catenin protein level, using its specific antibody, with GAPDH as endogenous loading control. The experiment was conducted in triplicate.
To determine the expression of various proteins, cells were harvested from the plates and total cellular protein were extracted using extraction reagents (Cat #: P0013) according to the manufacturer's protocol (Beyotime, China). The total protein concentration was determined by the Lowry Protein Assay kit (Bio-Rad, USA). […] The membranes were blocked with 5% skimmed milk, bovine serum albumin, 10 mmol/L Tris-HCl at pH 8.0, 150 mmol/L NaCl, and 0.05% Tween 20 overnight at 4° C. The blocked membranes were then incubated with primary antibodies (1:1000 dilutions), followed by secondary HRP-conjugated antibodies. Blots were visualized using Luminescence/Fluorescence Imaging LAS4000 System (GE Healthcare Life Sciences, USA) with super signal west pico chemiluminescent substrate kit (Thermo scientific, USA).
For this determination, the primary antibodies used were mouse monoclonal anti-beta-catenin antibodies (1:1000; Santa Cruz Technology, Santa Cruz, Calif.) and mouse monoclonal anti-GAPDH antibodies (1:2000) (Kangwei Biotechnology, China). […]

LRP6 = experiment: qPCR of Wnt-related co-receptor mRNA; settings: 10 μg/ml, 24 hr
Procedure: The regulation of LRP6/FZD6 by rSIFN-co was investigated. This was conducted by qPCR as performed in Example 9. […] After 24 hr of treatment, total cellular mRNA was isolated using TRIZOL Reagent, and cDNA was subjected to qPCR using specific primers of LRP6 and FZD6. The primers used were: LRP6 sense primer: 5′-[…]-3′ (SEQ ID NO: 4) and antisense primer: 5′-[…]-3′ (SEQ ID NO: 5), and FZD6 sense primer: 5′-[…]-3′ (SEQ ID NO: 6) and antisense primer: 5′-[…]-3′ (SEQ ID NO: 7). Experiments were conducted in triplicate and normalized with the Mock control group. Results were recorded as relative mRNA level of either LRP6 or FZD6 relative to GAPDH.

BATF2 = experiment: qPCR of tumor suppressor gene; settings: A549 cells, 10 mcg/ml, 24 hr
From the text: (§1) After 24 hr of treatment, total cellular mRNA was isolated using TRIZOL Reagent, and cDNA was synthesized, and further subjected to qPRC using specific primers for DKK3, KLF4 and BATF2. The following primers were used: for BATF2, sense primers: 5′-[…]-3′ (SEQ ID NO: 16) and antisense primers: 5′-[…]-3′ (SEQ ID NO: 17); for DKK3, sense primers: 5′-[…]-3′(SEQ ID NO: 18) and antisense primers: 5′-[…]-3′ (SEQ ID NO: 19); for KLF4, sense primers: 5′-[…]-3′ (SEQ ID NO: 20) and antisense primers: 5′-[…]-3′ (SEQ ID NO: 21).
(§2) The experiment was conducted in triplicate and normalized with the mock control group. Results, shown in FIG. 12, were expressed as relative mRNA expression level in relation to that of GAPDH.

KLF4 = experiment: qPCR of tumor suppressor gene; settings: 10 mcg/ml, 24 hr
From the text: as §1, §2

colon cancer SW620 cells = experiment: Cell migration assay across microporous membranes; settings: 10 μg/ml, 24 hr
Procedure: The cell migration assay was performed using 8 μm cell culture inserts in 24-well plates (Becton-Dickinson Biosciences, NJ, USA). Warm (37° C.) bicarbonate based culture medium without FBS was added to the interior of the inserts and to the bottoms of the wells, and were allowed to rehydrate for 2 hr in humidified tissue culture incubator at 37° C. in 5% CO2. After rehydration, the culture medium was carefully removed. […] In the lower compartment of the 24-well plates were placed 500 μl of complete medium with 10% FBS. After 24 hr at 37° C. under the regular culture conditions, the non-migrated cells in the upper part of the chamber membranes were removed with a cotton swab. The lower part of the culture inserts were fixed with 4% paraformaldehyde and stained with 2% crystal violet. The number of migrated cells on the opposite side of the chamber membranes from where the cells were placed was counted in each of the triplicate wells. Each experiment was repeated at least two times, each time with triplicate wells.

[1] = system: procaspase-3, cleaved caspase-3, procaspase-8, cleaved caspase-8, PARP; experiment: Apoptosis-related molecular markers by Western Blot; settings: A549 and SW620 cells, 24 hr or 48 hr; interferons 10 mcg/ml
From the text: Thereafter, apoptosis-related molecular markers were monitored by Western Blot. The primary antibodies used were mouse monoclonal anti-beta-tubulin (1:2000, Cat #: CW0098A) and mouse monoclonal anti-GAPDH (1:2000, Cat #: CW0100A) (Kangwei Biotechnology, China); mouse monoclonal anti-PARP (1:1000, Cat #: sc-2007, Santa Cruz Biotechnology, Inc.); rabbit monoclonal anti-procaspase 3 (1:1000, Cat #: 9665), and rabbit polyclonal anti-cleaved caspase 3 (1:1000, Cat #: 9661) (Cell Signaling Technology, USA); goat polyclonal anti-procaspase 8 (1:1000, Cat #: sc-6136, Santa Cruz Biotechnology, Inc); rabbit monoclonal anti-cleaved caspase 8 (1:1000, Cat #: 9496) (Cell Signaling Technology, USA).

[2] = system: phosphorylation of STAT1 (Tyr701), STAT2 (Tyr690), and STAT3 (Tyr705); experiment: p-STAT induction after B18R pre-incubation, Western blot; settings: IFN 1 ng/ml, B18R 10 ng/ml, 30 min, compared to IFNα-2b

B1: rSIFN-co: Recombinant super-compound interferon; amino acid sequence SEQ ID NO: 1 (same as INFERGEN), encoded by novel nucleotide sequence SEQ ID NO: 2 (protein)
chain: MCDLPQTHSLGNRRALILLAQMRRISPFSCLKDRHDFGFPQEEFDGNQFQKAQAISVLHEMIQQTFNLFSTKDSSAAWDESLLEKFYTELYQQLNDLEACVIQEVGVEETPLMNVDSILAVKKYFQRITLYLTEKKYSPCAWEVVRAEIMRSFSLSTNLQERLRRKE
modifications: Amino acid sequence of recombinant interferon
Question: For B1, which “cell viability over time (MTT)” value (A549 tumor cells) is on record?
Answer: also apparent for A549 cells for only about the first 3 days of treatment

Question: And the beta-catenin protein level (beta-catenin; A549 cells)?
Answer: dramatically decreased beta-catenin protein level after treatment for 2 days (48 hr)

Question: And the beta-catenin protein level (beta-catenin; SW480 cells)?
Answer: obvious after 72 hours of treatment

Question: What about the “relative expression of the LRP6 mRNA” value (LRP6; A549 cells) of the same molecule?
Answer: significant reduction

Question: What about the “relative expression of the LRP6 mRNA” value (LRP6; HT-29 cells) of the same molecule?
Answer: significant reduction

Question: What about the “relative expression of the LRP6 mRNA” value (LRP6; SW620 cells) of the same molecule?
Answer: significant reduction

Question: What about the “relative mRNA expression level of BATF2” value (BATF2) of the same molecule?
Answer: dramatically increased

Question: What about the “relative mRNA expression level of KLF4” value (KLF4; A549 cells) of the same molecule?
Answer: dramatically increased

Question: And the “relative mRNA expression level of KLF4” value (KLF4; SW620 cells)?
Answer: dramatically increased as compared to control and IFN alpha-2b treatment

Question: And the tumor cell migration (colon cancer SW620 cells)?
Answer: Significant inhibition

Question: What about the “level of cleaved caspase-3 and cleaved caspase-8” value [1] of the same molecule?
Answer: neither of the interferons, IFN alpha-2b nor rSIFN-co, caused any reduction in the level of procaspase-3 or procaspase-8 or PARP, or induced any enhancement

Question: What about the “level of procaspase-3, procaspase-8 and PARP” value [1] of the same molecule?
Answer: neither of the interferons, IFN alpha-2b nor rSIFN-co, caused any reduction

Question: And the “induction of phosphorylation on STAT1/2/3 after B18R pre-incubation” value ([2]; A549 cells)?
Answer: greater induction of phosphorylation on STAT1/2/3

Question: And the “induction of phosphorylation on STAT1/2/3 after B18R pre-incubation” value ([2]; Hela cells)?
Answer: greater induction of phosphorylation on STAT1/2/3
